System: MS2 coat protein
Test: apparent KD of MS2 coat protein; designed switch direction (-1 OFF switch, 1 ON switch): -1; higher = weaker reporter binding
Outline: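 Designed RNA switches were transcribed on Illumina chips by stalled E. coli RNA polymerase and titrated with SNAP-549-labelled MS2 coat protein from 0.7 or 1.5 nM, doubling to 3 µM. Step length ran from 0.8–1.5 h at the lowest concentration to 10–20 min at the highest. The apparent KD is the median over clusters for each design, from curve-fitted normalised cluster fluorescence.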

[1] = Eterna round: R95, input ligand: FMN 200 uM
[2] = Eterna round: R95, input ligand: microRNA oligo, concentration not stated
[3] = Eterna round: R95, input ligand: none
[4] = input ligand: microRNA oligo, concentration not stated

GGUACUAUCACCUGAGUGGUAGUGCCACAAGCUUGUGAUACAUGAGGAUCACCCAUGUCCUCAUUUGCUCGUCUUAU [JL-sv3-2.28 JL mod] (puzzle: Sensor v3, turn-off variant 2)
apparent KD of MS2 coat protein [1]: 289 nM | apparent KD of MS2 coat protein [2]: 1080 nM | apparent KD of MS2 coat protein [3]: 343 nM

GGUACUCAAAGAGUACCAAUACGAACAUGAGGAUCACCCAUGUAGGAUAUGCUACUCAAAGAGUAGCAGAAGGACAUGAACCCU [Far Half Aptamer v7] (Eterna round: R96, puzzle: Exclusion NG 3)
apparent KD of MS2 coat protein (input ligand: FMN 200 uM): 571 nM | apparent KD of MS2 coat protein [4]: 38.3 nM | apparent KD of MS2 coat protein (input ligand: none): 61.8 nM

GGUAGAGUGGUAGGAUAUCCGACUGAAACAGACGGAGAAGGACCACAGUCACUGGGUCCACUUAUAAUUAACAAUAAAUCUACC [pwkr exNG1 F6.2] (Eterna round: R96, puzzle: Exclusion NG 1)
apparent KD of MS2 coat protein (input ligand: FMN 200 uM): 326 nM | apparent KD of MS2 coat protein [4]: 120 nM | apparent KD of MS2 coat protein (input ligand: none): 263 nM

GGUAGAGUGGUAGGAUAUCCGUCUGUUUCAGUCGGAGAAGGACCACAGUCACUGGGUCCUAAUAUCAUGGAGACCUGAUCUACC [pwkr exNG1 F6.12] (Eterna round: R96, puzzle: Exclusion NG 1)
apparent KD of MS2 coat protein (input ligand: FMN 200 uM): 2200 nM | apparent KD of MS2 coat protein [4]: 316 nM | apparent KD of MS2 coat protein (input ligand: none): 284 nM

GGUAGGUGUGACUUGGGUGACAUGAGGAUCACCCAUGUCACAAGCUUGUUGCUCGCCUUGUAAUUAACCCAUGUCAC [LRO Sensor-off var1-29 mod of Stov1-13-A1 by Brourd] (Eterna round: R97, puzzle: Sensor, turn-off variant 1)
apparent KD of MS2 coat protein (input ligand: FMN 200 uM): 21.5 nM | apparent KD of MS2 coat protein (input ligand: none): 21.5 nM

GGUAUACAUGAGGAUCACCCAUGUCAGGAUAUGGUAUCCUGUGCCGAAAGGCACAGGUCCAGAAGGGACGAUAG [AK-MS2ROC-r4-exclusion1-5.2] (Eterna round: R97, puzzle: Exclusion 1)
apparent KD of MS2 coat protein (input ligand: FMN 200 uM): 109 nM | apparent KD of MS2 coat protein (input ligand: none): 91.7 nM

GGUAUGGCCACAGGAUAUUGAGCCACAUGAGGAUCACCCAUGUGAGGACGUAGAAUCGCCUGGCCCAAGAAGGGUGAAGCCCAU [Eternabot solution 4] (Eterna round: R96, puzzle: Exclusion NG 2)
apparent KD of MS2 coat protein (input ligand: FMN 200 uM): 17.1 nM | apparent KD of MS2 coat protein [4]: 13.1 nM | apparent KD of MS2 coat protein (input ligand: none): 28 nM

GGUCAAGAACAGAACCGCGCUGCCAUUGACCGCUCAUUUACAUGAGGAUCACCCAUGUUUUUUGCUUGUCUUGUUAC [Beusdieson] (puzzle: Sensor v3, turn-off variant 2)
apparent KD of MS2 coat protein [1]: 16.2 nM | apparent KD of MS2 coat protein [2]: 89.9 nM | apparent KD of MS2 coat protein [3]: 18.7 nM

GGUCAAGAACAGCUCCGCGCUGCCCUCGACCGCUCAUUUACAUGAGGAUCACCCAUGUUUUUUGCUUGUCUUGUUAC [Usvetive] (puzzle: Sensor v3, turn-off variant 2)
apparent KD of MS2 coat protein [1]: 16.9 nM | apparent KD of MS2 coat protein [2]: 91.8 nM | apparent KD of MS2 coat protein [3]: 16.5 nM

GGUCAAGAGCAGCUCCGCGCUGCCAUUGACCGCUCAUUUACAUGAGGAUCACCCAUGUUUUUUGCUCGUCUUAUUAC [Somabi] (puzzle: Sensor v3, turn-off variant 2)
apparent KD of MS2 coat protein [1]: 18.5 nM | apparent KD of MS2 coat protein [2]: 53.2 nM | apparent KD of MS2 coat protein [3]: 18.8 nM

GGUCAGACGGUAGGAUAUCCAUAUCGAGUGACCCUUUCAUAACAUGAGGAUCACCCAUGUCGGUGGGAGAAGGGCCGUACGGCG [salish99_ExNG02_R04_001] (Eterna round: R96, puzzle: Exclusion NG 2)
apparent KD of MS2 coat protein (input ligand: FMN 200 uM): 146 nM | apparent KD of MS2 coat protein [4]: 70.4 nM | apparent KD of MS2 coat protein (input ligand: none): 63.2 nM

GGUCAGAUGGUAGGAUAUCCAUAUCGAGUGACCCUUUCAUAACAUGAGGAUCACCCAUGUCGGUGGGAGAAGGGUCGUACGGCG [salish99_ExNG02_R04_020] (Eterna round: R96, puzzle: Exclusion NG 2)
apparent KD of MS2 coat protein (input ligand: FMN 200 uM): 21.3 nM | apparent KD of MS2 coat protein [4]: 16.4 nM | apparent KD of MS2 coat protein (input ligand: none): 23.6 nM

GGUCAGAUGGUAGGAUAUCUAUAUCGAGUGACCCUUUCAUAACAUGAGGAUCACCCAUGUCGGUGGGAGAAGGGCCGUACGGCG [salish99_ExNG02_R04_012] (Eterna round: R96, puzzle: Exclusion NG 2)
apparent KD of MS2 coat protein (input ligand: FMN 200 uM): 41.1 nM | apparent KD of MS2 coat protein [4]: 30.6 nM | apparent KD of MS2 coat protein (input ligand: none): 40.2 nM

GGUCAGCUAGGAUAUACAUGAGGAUCACCCAUGUACUGACCCAUGCGGUAGUCCGCAUGUAGAAGGAGCAAAAU [Cebiin] (Eterna round: R97, puzzle: Exclusion 3)
apparent KD of MS2 coat protein (input ligand: FMN 200 uM): 11.3 nM | apparent KD of MS2 coat protein (input ligand: none): 18.2 nM

GGUCAUCAAGUCAGGAUAUCGUCUGGUCGGUCUGGCGAGAAGGGACAUGAGGAUCACCCAUGUCGACUCAUCAG [Ex4 #11] (Eterna round: R97, puzzle: Brourd's mod of Exclusion 4)
apparent KD of MS2 coat protein (input ligand: FMN 200 uM): 29.2 nM | apparent KD of MS2 coat protein (input ligand: none): 17.6 nM

GGUCCACAUGAGGAUCACCCAUGUUAGGAUAUCUCCUGCCUCCUCACUGGAGGCAGACAGAGAAGGAACAUCAA [Eratxe] (puzzle: Exclusion 1)
apparent KD of MS2 coat protein [1]: 78.3 nM | apparent KD of MS2 coat protein [2]: 22 nM | apparent KD of MS2 coat protein [3]: 23.9 nM

GGUCCACGAGGAUAUCGAUUAUAGUACAUGAGGAUCACCCAUGUUGUCCAGGUUUCGAUUCGAGAAGGCGUGGGUU [LRO-Ex5-02] (puzzle: Exclusion 5)
apparent KD of MS2 coat protein [2]: 51.8 nM

GGUCCGAGUGUGAGGAUAUGCUGGUCCUUGGAUCAGCAGAAGGCACAUGAGGAUCACCCAUGUGGUGUCGGACC [Mat - Exclusion 4 - Eli Mod - D32] (Eterna round: R97, puzzle: Brourd's mod of Exclusion 4)
apparent KD of MS2 coat protein (input ligand: FMN 200 uM): 140 nM | apparent KD of MS2 coat protein (input ligand: none): 932 nM

GGUCCGUGUGUGAGGAUAUGCUGGUCCUUGGAUCAGCAGAAGGCACAUGAGGAUCACCCAUGUGGUGUCGGACC [Mat - Exclusion 4 - Eli Mod - D33] (Eterna round: R97, puzzle: Brourd's mod of Exclusion 4)
apparent KD of MS2 coat protein (input ligand: FMN 200 uM): 24.6 nM | apparent KD of MS2 coat protein (input ligand: none): 361 nM

GGUCGACAUGAGGAUCACCCAUGUCAGGAUAUCGUCACUGGAGCUUCGGCUCCAGUGACGAGAAGGGAUAUGAU [E1/17-A1] (Eterna round: R97, puzzle: Exclusion 1)
apparent KD of MS2 coat protein (input ligand: FMN 200 uM): 39.1 nM | apparent KD of MS2 coat protein (input ligand: none): 34.2 nM

GGUCGGCGAGGAUAUACAUGAGGAUCACCCAUGUGAUAGAGUGCACGCGUACGUGUACGUAGAAGGCGCUGACG [JL-ex3-3.28 salish99 mod] (puzzle: Exclusion 3)
apparent KD of MS2 coat protein [1]: 26.4 nM | apparent KD of MS2 coat protein [2]: 13.2 nM | apparent KD of MS2 coat protein [3]: 12.5 nM

GGUCGUAGACAGGAUAUGCGGCAAAGAAACAAAGCAGAAGGGUCUACUUGAGGAUCACCCAAGUGGGCGGUUAA [Atrele] (Eterna round: R97, puzzle: Exclusion 6)
apparent KD of MS2 coat protein (input ligand: FMN 200 uM): 153 nM | apparent KD of MS2 coat protein (input ligand: none): 20.4 nM

GGUCGUCAAGUCAGGAUAUCGUUUGGUCGGUGUAACGAGAAGGGACAUGAGGAUCACCCAUGUCGUCUCAUCAG [Ex4 #28] (Eterna round: R97, puzzle: Brourd's mod of Exclusion 4)
apparent KD of MS2 coat protein (input ligand: FMN 200 uM): 29.3 nM | apparent KD of MS2 coat protein (input ligand: none): 20.4 nM

GGUCUACAUGAGGAUCACCCAUGUAAGGAUAUCGUCACUGGAGCUUCGGCUCCAGUGACGAGAAGGUGCAUAAU [E1/11-A1] (Eterna round: R97, puzzle: Exclusion 1)
apparent KD of MS2 coat protein (input ligand: FMN 200 uM): 35.4 nM | apparent KD of MS2 coat protein (input ligand: none): 27.2 nM

GGUCUUCAAGUCAGGAUAUCGUCUAGUCGGUCUGGCGAGAAGGGACAUGAGGAUCACCCAUGUCGUCUCAUCAG [Ex4 #14] (Eterna round: R97, puzzle: Brourd's mod of Exclusion 4)
apparent KD of MS2 coat protein (input ligand: FMN 200 uM): 30.6 nM | apparent KD of MS2 coat protein (input ligand: none): 19.9 nM

GGUGAAGCAGGAUAUGUAUCGGCAUACAUGAGGAUCACCCAUGUCAUGUAGAUACCGCAUAUAGAAGGGCUUCACC [Exclusion 5 (FMN-MS2 slide v.5)] (Eterna round: R97, puzzle: Exclusion 5)
apparent KD of MS2 coat protein (input ligand: FMN 200 uM): 41.1 nM | apparent KD of MS2 coat protein (input ligand: none): 16.9 nM

GGUGCGUAUGUGAGGAUAUGCUGGUCCUUGGAUCAGCAGAAGGCACAUGAGGAUCACCCAUGUGGUGUCGUACG [salish99_Bmod_Ex4_012] (puzzle: Brourd's mod of Exclusion 4)
apparent KD of MS2 coat protein [2]: 54.6 nM

GGUGCGUAUGUGAGGAUAUGCUGGUCCUUGGAUCAGCAGAAGGCACAUGAGGAUCACCCAUGUGGUGUCGUGCC [salish99_Bmod_Ex4_019] (Eterna round: R96, puzzle: Brourd's mod of Exclusion 4)
apparent KD of MS2 coat protein (input ligand: FMN 200 uM): 132 nM | apparent KD of MS2 coat protein [4]: 741 nM | apparent KD of MS2 coat protein (input ligand: none): 1050 nM

GGUGCGUAUGUGAGGAUAUGCUGGUCCUUGGAUCAGCAGAAGGCACAUGAGGAUCACCCAUGUGGUGUCGUGCC [salish99_Bmod_Ex4_019] (puzzle: Brourd's mod of Exclusion 4)
apparent KD of MS2 coat protein [2]: 168 nM

GGUGCGUCUGUGAGGAUAUGCUGGUCCUUGGCUCGGCAGAAGGCACAUGAGGAUCACCCAUGUGGUGUCGUGCC [salish99_Bmod_ex4_058] (puzzle: Brourd's mod of Exclusion 4)
apparent KD of MS2 coat protein [2]: 16.7 nM

GGUGCGUGUGUGAGGAUAUGCUGGUCCUUGGCUCGGCAGAAGGCACAUGAGGAUCACCCAUGUGGUGUCGUGCC [salish99_Bmod_ex4_057] (puzzle: Brourd's mod of Exclusion 4)
apparent KD of MS2 coat protein [2]: 19.9 nM

GGUGCUGGCGCGUCGGUGUUGGUGCAAUAAGCUUGUGAAACAUGAGGAUCACCCAUGUCCUCAUGGGCUCGUCUUGU [salish99_TOv2_r2_089] (puzzle: Sensor v3, turn-off variant 2)
apparent KD of MS2 coat protein [1]: 123 nM | apparent KD of MS2 coat protein [2]: 13 nM | apparent KD of MS2 coat protein [3]: 138 nM

GGUGGACAUGAGGAUCACCCAUGUGAGGAUAUCGGCUGGUACGUGUUGGCUGGCAUCUCGAGAAGGCACAUAGU [Exclusion 1 V61] (puzzle: Exclusion 1)
apparent KD of MS2 coat protein [2]: 58.8 nM
